We go through two molecules from publication doi:10.1101/2021.06.08.447469.

The target in this series is T1, MbpAgo (Mucilaginibacter paludis, UniProt H1YCU5 1-795).
T1 sequence: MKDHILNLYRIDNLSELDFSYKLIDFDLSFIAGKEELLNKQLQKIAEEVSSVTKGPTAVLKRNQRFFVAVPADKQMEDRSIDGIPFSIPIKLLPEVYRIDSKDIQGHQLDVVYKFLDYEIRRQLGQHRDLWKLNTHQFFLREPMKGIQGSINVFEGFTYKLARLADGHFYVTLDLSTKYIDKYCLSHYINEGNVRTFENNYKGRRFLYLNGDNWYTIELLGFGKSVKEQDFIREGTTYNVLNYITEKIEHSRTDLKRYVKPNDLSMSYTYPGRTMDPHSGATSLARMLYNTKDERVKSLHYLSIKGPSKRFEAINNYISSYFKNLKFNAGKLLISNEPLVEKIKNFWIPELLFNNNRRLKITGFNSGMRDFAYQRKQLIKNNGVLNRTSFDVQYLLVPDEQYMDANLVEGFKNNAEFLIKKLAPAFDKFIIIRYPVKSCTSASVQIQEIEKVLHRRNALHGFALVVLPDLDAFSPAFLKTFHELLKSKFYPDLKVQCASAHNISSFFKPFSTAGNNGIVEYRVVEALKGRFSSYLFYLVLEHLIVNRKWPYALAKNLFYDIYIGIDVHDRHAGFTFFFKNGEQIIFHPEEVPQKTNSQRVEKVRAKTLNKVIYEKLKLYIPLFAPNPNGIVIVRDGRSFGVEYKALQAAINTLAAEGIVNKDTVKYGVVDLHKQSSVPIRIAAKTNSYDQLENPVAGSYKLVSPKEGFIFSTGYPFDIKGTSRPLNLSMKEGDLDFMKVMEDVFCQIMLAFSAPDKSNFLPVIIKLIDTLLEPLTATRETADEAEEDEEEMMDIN
The series can be described thus: EMSA. (In EMSA bound probe runs differently from free probe, usually more slowly.)

On to TGAGGTAGTAGGTTGTAT (ssDNA, 5' phosphate) [18 nt 5'P-gDNA (FAM T-gDNA)], for which the affinity, expressed as Kd, was 254 ± 23.3 nM.

Regarding TGAGGTAGTAGGTTGTAT (ssDNA) [18 nt 5'OH-gDNA (FAM T-gDNA)], the affinity, expressed as Kd, was 292 ± 25.2 nM.
